To fix the notation:
B2: C-terminus of INTS3 (INTS3c), residues 560–905 and 915–995 (domain or fragment, human)
chain 1: TVVEEPVDITPYLDQLDESLRDKVLQLQKGSDTEAQCEVMQEIVDQVLEEDFDSEQLSVLASCLQELFKAHFRGEVLPEEITEESLEESVGKPLYLIFRNLCQMQEDNSSFSLLLDLLSELYQKQPKIGYHLLYYLRASKAAAGKMNLYESFAQATQLGDLHTCLMMDMKACQEDDVRLLCHLTPSIYTEFPDETLRSGELLNMIVAVIDSAQLQELVCHVMMGNLVMFRKDSVLNILIQSLDWETFEQYCAWQLFLAHNIPLETIIPILQHLKYKEHPEALSCLLLQLRREKPSEEMVKMVLSRPCHPDDQFTTSILRHWCMKHDELLAEHIKSLLIKNNSLPRK
chain 2: KLAQLTLEQILEHLDNLRLNLTNTKQNFFSQTPILQALQHVQASCDEAHKMKFSDLFSLAEEYEDSSTKPPKSRRKAALSS
notes: Two polypeptides of one protein, co-expressed; residues 906-914 are absent; A selenomethionine form was used for phasing (2.6 Å); the final structure is of native crystals (2.4 Å); copies: 2 + 2

For data set [1], the target named is T1, INTS3(1-500) (INTS3N);hSSB1 (human;human, UniProt Q68E01-2;Q9BQ15 1-500;1-211, |). Description: SPR; comparable to hSSB1 alone; KD only in Fig. S5b; EMSA: 50 mM NaCl, 20 mM HEPES pH 7.5, 1 mM MgCl2, 0.5 mM EDTA, 0.2 mM DTT, on ice 1 h; SPR: 200 mM NaCl, 40 mM HEPES pH 7.5, 50 uM EDTA, 25 C. The following applies: protein: recombinant;recombinant; tags: ;; copies: 1;1. Background: Surface plasmon resonance follows binding to a sensor surface in real time, without labels.

The target of data set [2] is T2, hSSB1 (human, UniProt Q9BQ15 1-211). Description: SPR; hSSB1 immobilized; comparable to INTS3(1-500)/hSSB1; KD only in Fig. S5a; EMSA: 50 mM NaCl, 20 mM HEPES pH 7.5, 1 mM MgCl2, 0.5 mM EDTA, 0.2 mM DTT, on ice 1 h; SPR: 200 mM NaCl, 40 mM HEPES pH 7.5, 50 uM EDTA, 25 C. The following applies: protein: recombinant.
The next data set addresses INTS3 full length;hSSB1 (human;human, UniProt Q68E01-2;Q9BQ15 1-1042;1-211, |). In words: SPR; KD only in Fig. S5d; EMSA: 50 mM NaCl, 20 mM HEPES pH 7.5, 1 mM MgCl2, 0.5 mM EDTA, 0.2 mM DTT, on ice 1 h; SPR: 200 mM NaCl, 40 mM HEPES pH 7.5, 50 uM EDTA, 25 C. The following applies: protein: recombinant;recombinant; tags: ;; copies: 1;1.
Data set [3] addresses T3, INTS3(1-995);hSSB1 (human;human, UniProt Q68E01-2;Q9BQ15 1-995;1-211, |). In words: SPR; KD only in Fig. S5c; EMSA: 50 mM NaCl, 20 mM HEPES pH 7.5, 1 mM MgCl2, 0.5 mM EDTA, 0.2 mM DTT, on ice 1 h; SPR: 200 mM NaCl, 40 mM HEPES pH 7.5, 50 uM EDTA, 25 C. The following applies: protein: recombinant;recombinant; tags: ;; chain copies: 2;2.
Another data set addresses INTS3c (human, UniProt Q68E01-2;Q68E01-2 560-905;915-995). Description: EMSA; INTS3c alone unable to bind ssDNA; method inferred; EMSA: 50 mM NaCl, 20 mM HEPES pH 7.5, 1 mM MgCl2, 0.5 mM EDTA, 0.2 mM DTT, on ice 1 h; SPR: 200 mM NaCl, 40 mM HEPES pH 7.5, 50 uM EDTA, 25 C. The following applies: protein: recombinant; tags: GST removed.
Data set [4] has as its target INTS3(1-995);hSSB1;INTS6c (human;human;human, UniProt Q68E01-2;Q9BQ15;Q9UL03 1-995;1-211;800-887, ||). In words: EMSA; 1 mM MgCl2; INTS6c 1:1, no effect on binding; EMSA: 50 mM NaCl, 20 mM HEPES pH 7.5, 1 mM MgCl2, 0.5 mM EDTA, 0.2 mM DTT, on ice 1 h; SPR: 200 mM NaCl, 40 mM HEPES pH 7.5, 50 uM EDTA, 25 C. The following applies: protein: recombinant;recombinant;recombinant; tags: ;;GST removed; chain copies: 2;2;2; label: 6-FAM (printed 6'-carboxy-fluorescein). On the technique in general: In EMSA bound probe runs differently from free probe, usually more slowly.

The target of data set [5] is T3, INTS3(1-995);hSSB1. Description: EMSA; 1 mM MgCl2; EMSA: 50 mM NaCl, 20 mM HEPES pH 7.5, 1 mM MgCl2, 0.5 mM EDTA, 0.2 mM DTT, on ice 1 h; SPR: 200 mM NaCl, 40 mM HEPES pH 7.5, 50 uM EDTA, 25 C. As to conditions: protein: recombinant;recombinant; tags: ;; chain copies: 2;2; label: 6-FAM (printed 6'-carboxy-fluorescein).
The target in data set [6] is B2. In words: crystal structure; INTS3c/INTS6c complex from purified parts, crystallised in 1.7 M ammonium citrate tribasic pH 7.0, 4% v/v pentaerythritol ethoxylate; SAD on selenomethionine INTS3c, native data to 2.4 Å. The following applies: both partners purified.
Data set [7] deals with the molecule itself. The data set is described as above.
Data set [8] deals with the molecule itself. In words: SEC; analytical size-exclusion chromatography of co-expressed and purified INTS3-hSSB1 complexes (Supplementary Fig. S2). For orientation: In gel filtration, larger molecules generally elute earlier.
Data set [9] concerns the target T2, hSSB1. In words: EMSA; comparable affinities among the three; EMSA: 50 mM NaCl, 20 mM HEPES pH 7.5, 1 mM MgCl2, 0.5 mM EDTA, 0.2 mM DTT, on ice 1 h; SPR: 200 mM NaCl, 40 mM HEPES pH 7.5, 50 uM EDTA, 25 C. As to conditions: protein: recombinant.
Data set [10] deals with T1, INTS3(1-500) (INTS3N);hSSB1. The data set is described as above. As to conditions: protein: recombinant;recombinant; tags: ;; copies: 1;1.
The target of data set [11] is T3, INTS3(1-995);hSSB1. The description is as above. As to conditions: protein: recombinant;recombinant; tags: ;; chain copies: 2;2.

T3 sequence (Q9BQ15 whole entry, one chain of several): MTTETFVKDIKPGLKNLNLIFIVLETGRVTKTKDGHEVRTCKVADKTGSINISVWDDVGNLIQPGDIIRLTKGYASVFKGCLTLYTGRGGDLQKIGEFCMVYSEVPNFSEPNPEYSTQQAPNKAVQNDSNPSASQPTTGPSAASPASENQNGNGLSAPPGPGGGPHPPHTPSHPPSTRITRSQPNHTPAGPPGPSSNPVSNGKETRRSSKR
T2 sequence (Q9BQ15 whole entry): as the sequence (Q9BQ15 whole entry, one chain of several) above
T1 sequence (Q9BQ15 whole entry, one chain of several): as above
Chain of INTS3 full length;hSSB1 (Q9BQ15 whole entry, one chain of several): as above
Chain of INTS3(1-995);hSSB1;INTS6c (Q9BQ15 whole entry, one chain of several): as above
Chain of INTS3c (Q68E01 916-996, chain 2 of 2, one chain of several): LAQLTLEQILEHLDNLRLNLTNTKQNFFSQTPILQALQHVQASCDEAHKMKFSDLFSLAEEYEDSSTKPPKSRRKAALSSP

For the molecule TTTTTTTTTTTTTTTTTTTTTTTTTTTTTTTTTTTTTTTTTTTTTTTT (ssDNA) [dT48], the binding result (in data set [1]; in the data set with hSSB1 [2]; with INTS3 full length;hSSB1; with INTS3(1-995);hSSB1 [3]) was “binds” throughout.

On to TTTTTTTTTTTTTTTTTTTTTTTTTTTTTTTTTTTTTTTTTTTTTTTT (ssDNA) [ssDNA of Fig. S4d], for which the binding result with INTS3c is listed as “no binding”.

As for TTTTTTTTTTTTTTTTTTTTTTTTTTTTTTTTTTTTTTTTTTTTTTTT (ssDNA) [dT48 (FAM)], the binding result (in data set [4]; with INTS3(1-995);hSSB1 [5]) was “binds” throughout.

B1: C-terminus of INTS6 (INTS6c), residues 800–887 (domain or fragment, human, UniProt Q9UL03 800-887, looked up)
chain: MHCRSHEEVNTELKAQIMKEIRKPGRKYERIFTLLKHVQGSLQTRLIFLQNVIKEASRFKKRMLIEQLENFLDEIHRRANQINHINSN
notes: integrator complex subunit 6 (INTS6), human, residues 800-887; Cloned into pGEX-6p-1
For B1, in [6], the “stoichiometry N” value is 2 INTS3c:INTS6c.

In the case of B2, the “stoichiometry N” value in [7] turned out to be 2.

B3: INTS3(1−995) (domain or fragment, human, UniProt Q68E01 1-995, looked up)
chain: MELQKGKGAAAAAAASGAAGGGGGGAGAGAPGGGRLLLSTSLDAKDELEERLERCMSIVTSMTAGVSEREANDALNAYVCKGLPQHEEICLGLFTLILTEPAQAQKCYRDLALVSRDGMNIVLNKINQILMEKYLKLQDTCRTQLVWLVRELVKSGVLGADGVCMTFMKQIAGGGDVTAKNIWLAESVLDILTEQREWVLKSSILIAMAVYTYLRLIVDHHGTAQLQALRQKEVDFCISLLRERFMECLMIGRDLVRLLQNVARIPEFELLWKDIIHNPQALSPQFTGILQLLQSRTSRKFLACRLTPDMETKLLFMTSRVRFGQQKRYQDWFQRQYLSTPDSQSLRCDLIRYICGVVHPSNEVLSSDILPRWAIIGWLLTTCTSNVAASNAKLALFYDWLFFSPDKDSIMNIEPAILVMHHSMKPHPAITATLLDFMCRIIPNFYPPLEGHVRQGVFSSLNHIVEKRVLAHLAPLFDNPKLDKELRAMLREKFPEFCSSPSPPVEVKIEEPVSMEMDNHMSDKDESCYDNAEAAFSDDEEDLNSKGKKREFRFHPIKETVVEEPVDITPYLDQLDESLRDKVLQLQKGSDTEAQCEVMQEIVDQVLEEDFDSEQLSVLASCLQELFKAHFRGEVLPEEITEESLEESVGKPLYLIFRNLCQMQEDNSSFSLLLDLLSELYQKQPKIGYHLLYYLRASKAAAGKMNLYESFAQATQLGDLHTCLMMDMKACQEDDVRLLCHLTPSIYTEFPDETLRSGELLNMIVAVIDSAQLQELVCHVMMGNLVMFRKDSVLNILIQSLDWETFEQYCAWQLFLAHNIPLETIIPILQHLKYKEHPEALSCLLLQLRREKPSEEMVKMVLSRPCHPDDQFTTSILRHWCMKHDELLAEHIKSLLIKNNSLPRKRQSLRSSSSKLAQLTLEQILEHLDNLRLNLTNTKQNFFSQTPILQALQHVQASCDEAHKMKFSDLFSLAEEYEDSSTKPPKSRRKAALSS
notes: The complex with hSSB1 was held on an NTA chip for SPR with DNA, so one of its chains may carry a His tag; source: co-expressed with hSSB1 and purified
For the molecule B3, in [8], the “stoichiometry N” value is 2.

As to TTTTTTTTTTTT (ssDNA) [dT12], the binding result (with hSSB1 [9]; in data set [10]; with INTS3(1-995);hSSB1 [11]) was “binds” in each case.

What is called stoichiometry N is a count of units in the complex or per binding partner.

The record behind these values is paper PMC8368002, “Crystal structure of the INTS3/INTS6 complex reveals the functional importance of INTS3 dimerization in DSB repair” (Cell Discovery, 2020).
